In this assay the target is nuclear transport factor 2 (NUTF2) (human (endogenous in MCF-7)) (UniProt P61970). The assay is described as follows: native MS; native top-down proteomics: whole cell lysates of MCF-7 and MCF-7-EGFR (EGFR-overexpressing) cells fractionated by native SEC, concentrated with molecular weight cutoff filters, direct ESI infusion FAIMS-MSn with HCD, Orbitrap detection; endogenous assemblies.

Sequence of nuclear transport factor 2 (NUTF2) (P61970 whole entry): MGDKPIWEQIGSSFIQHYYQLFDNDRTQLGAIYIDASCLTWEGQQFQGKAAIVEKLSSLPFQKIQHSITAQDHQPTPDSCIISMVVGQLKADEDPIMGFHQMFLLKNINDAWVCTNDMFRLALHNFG

“nuclear transport factor 2 (NUTF2) (from UniProt P61970 1-127) (natural protein; monomeric proteoforms include acetylated, methylated and dimethylated forms (sites K4, K55, K63); monomeric proteoforms include acetylated, methylated and dimethylated forms (sites K4, K55, K63); other documents disagree on this pair)”: the stoichiometry N was found to be 2.
